# Values of other authors as cited in PMC9966187.
substance,measurement,setting,value
E-selectin (from UniProt P16581),Kd,C-(IEELQAR) peptide,35 µM
same,Kd,C-(IELFQAR) peptide,16 µM
